Test results as given in the supplement of paper PMC10567573.

B1: TRIM43 (parent)
chain: RAQMIRNEYRKLHPVLHKEEKQHL
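Also: lentivirally expressed fusions sorted by FACS into six bins by GFP to DsRed ratio, PSI derived from sequencing read proportions per bin multiplied by bin number.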

Variants of: B1
Assay: protein stability index of a GFP-peptide fusion (GPS, HEK-293T) (PSI 1-6); higher = more stable
Details: c terminus: a fixed tail appended
Variant RAQMIRNWYRKLHPVLHKEEKQHL has a protein stability index of 1.33. RAQMIRNSYRKLHPVLHKEEKQHL showed a protein stability index of 2.91. In the case of RAQMIRNGYRKLHPVLHKEEKQHL, the protein stability index is reported as 2.84. Work on RAQMIRNTYRKLHPVLHKEEKQHL yielded a protein stability index of 2.56. Variant RAQMIRNVYRKLHPVLHKEEKQHL has a protein stability index of 2.33. For RAQMIRNAYRKLHPVLHKEEKQHL, the protein stability index was 2.16. RAQMIRNKYRKLHPVLHKEEKQHL showed a protein stability index of 2.92. With RAQMIRNRYRKLHPVLHKEEKQHL the protein stability index was 2.89. For RAQMIRNEYRKLHPVLHKEEKQML, the protein stability index was 3.39. RAQMIRNEYRKLHPVLHKEEKQTL showed a protein stability index of 3.23. Variant RAQMIRNEYRKLHPVLHKEEKQVL has a protein stability index of 3.17. In the case of RAQMIRNEYRKLHPVLHKEEKQLL, the protein stability index is reported as 3.18. RAQMIRNEYRKLHPVLHKEEKQRL gave a protein stability index of 2.94. Variant RAQMIRNEYRKLHPVLHKEEKQNL has a protein stability index of 3.13. Work on RAQMIRNEYRKLHPVLHKEEKQKL yielded a protein stability index of 3.33. Variant RAQMIENEYRKLHPVLHKEEKQHL has a protein stability index of 3.48. In the case of RAQMIGNEYRKLHPVLHKEEKQHL, the protein stability index is reported as 3.96. RAQMIMNEYRKLHPVLHKEEKQHL gave a protein stability index of 2.19. In the case of RAQMIVNEYRKLHPVLHKEEKQHL, the protein stability index is reported as 3.52. For RAQMITNEYRKLHPVLHKEEKQHL, the protein stability index was 3.89. Variant RAQMILNEYRKLHPVLHKEEKQHL has a protein stability index of 2.15. With RAQMIFNEYRKLHPVLHKEEKQHL the protein stability index was 2.44. RAQMIRNEYRKLHPVLHKEEKRHL showed a protein stability index of 3.62. With RAQMIRNEYRKLHPVLHKEEKDHL the protein stability index was 3.65. For RAQMIRNEYRKLHPVLHKEEKEHL, the protein stability index was 3.82. With RAQMIRNEYRKLHPVLHKEEKSHL the protein stability index was 3.3. RAQMIRNEYRKLHPVLHKEEKGHL gave a protein stability index of 2.34. With RAQMIRNEYRKLHPVLHKEEKHHL the protein stability index was 2.91. In the case of RAQMIRVEYRKLHPVLHKEEKQHL, the protein stability index is reported as 2.64. For RAQMIRGEYRKLHPVLHKEEKQHL, the protein stability index was 3.08. Work on RAQMIRQEYRKLHPVLHKEEKQHL yielded a protein stability index of 3.33. RAQMIRYEYRKLHPVLHKEEKQHL gave a protein stability index of 2.74. Work on RAQMIRDEYRKLHPVLHKEEKQHL yielded a protein stability index of 3.35. In the case of RAQMIRNEYRKLHPRLHKEEKQHL, the protein stability index is reported as 3.37. With RAQMIRNEYRKLHPSLHKEEKQHL the protein stability index was 2.94. With RAQMIRNEYRKLHPDLHKEEKQHL the protein stability index was 3.64. RAQMIRNEYRKLHPQLHKEEKQHL showed a protein stability index of 3.17. Variant RAQMIRNEYRKLHPELHKEEKQHL has a protein stability index of 3.5. Variant RAQMIRNEYRKLHPVLHKEEKQHQ has a protein stability index of 3.84. Work on RAQMIRNEYRKLHPVLHKEEKQHG yielded a protein stability index of 3.67. RAQMIRNEYRKLHPVLHKEEKQHK gave a protein stability index of 3.77. With RAQMIRNEYRKLHPVLHKEEKQHY the protein stability index was 3.34. Work on RAQMIRNEYRKLHPVLHKEEKQHE yielded a protein stability index of 4.61. Work on RAQMIRNEYRKLHPVLHKEEKQHT yielded a protein stability index of 4.01. With RAQMIRNEYRKLHPVLHKEEKQHA the protein stability index was 3.59. Variant RAQMIRNEYRKLHPVLHKEEKQHF has a protein stability index of 2.36. For RAQMIRNEYRKLHPVLHPEEKQHL, the protein stability index was 3.48. With RAQMIRNEYRKLHPVLHAEEKQHL the protein stability index was 2.81. With RAQMIRNEYRKLHPVLHCEEKQHL the protein stability index was 2.7. In the case of RAQMIRNEYRKLHPVLHYEEKQHL, the protein stability index is reported as 3.09. Work on RAQMIRNEYRKLHPVLHWEEKQHL yielded a protein stability index of 2.44. For RAQMIRNEYRKLHPVLHHEEKQHL, the protein stability index was 3.59. RAQMIRNEYRKLHVVLHKEEKQHL showed a protein stability index of 2.59. Work on RAQMIRNEYRKLHNVLHKEEKQHL yielded a protein stability index of 2.64. With RAQMIRNEYRKLHFVLHKEEKQHL the protein stability index was 2.95. Work on RAQMIRNEYRKLHAVLHKEEKQHL yielded a protein stability index of 2.53. RAQMIRNEYRKLHIVLHKEEKQHL gave a protein stability index of 2.44. Variant RAQMIRNEYRKLHEVLHKEEKQHL has a protein stability index of 3.28. Work on RAQMIRNEYRKLHSVLHKEEKQHL yielded a protein stability index of 2.04. Work on RAQMIRNEYRKLHYVLHKEEKQHL yielded a protein stability index of 2.27. RAQMIRNEYRKLHPVIHKEEKQHL gave a protein stability index of 3.31. RAQMIRNEYRKLHPVDHKEEKQHL showed a protein stability index of 4.12. For RAQMIRNEYRKLHPVHHKEEKQHL, the protein stability index was 3.2. In the case of RAQMIRNEYRKLHPVRHKEEKQHL, the protein stability index is reported as 3.84. Variant RAQMIRNEYRKLHPVSHKEEKQHL has a protein stability index of 3.65. Work on RAQMIRNEYRKLHPVWHKEEKQHL yielded a protein stability index of 2.3. RAQMIRNEYRKLHPVMHKEEKQHL showed a protein stability index of 3.94. In the case of RAQMIRNEYRKLKPVLHKEEKQHL, the protein stability index is reported as 3.55. In the case of RAQMIRNEYRKLQPVLHKEEKQHL, the protein stability index is reported as 3.56. Variant RAQMIRNEYRKLWPVLHKEEKQHL has a protein stability index of 2.61. In the case of RAQMIRNEYRKLNPVLHKEEKQHL, the protein stability index is reported as 3.35. Variant RAQMIRNEYRKLSPVLHKEEKQHL has a protein stability index of 3.4. With RAQMIRNEYRKLEPVLHKEEKQHL the protein stability index was 4.06. Work on RAQMIRNEYRKLLPVLHKEEKQHL yielded a protein stability index of 3.28. Variant RAQMIRNEYRKLAPVLHKEEKQHL has a protein stability index of 3.46. RAQMIRNEYRKLHPVLHKEGKQHL showed a protein stability index of 2.29. Variant RAQMIRNEYRKLHPVLHKEHKQHL has a protein stability index of 2.63. In the case of RAQMIRNEYRKLHPVLHKESKQHL, the protein stability index is reported as 2.85. With RAQMIRNEYRKLHPVLHKECKQHL the protein stability index was 2.57. RAQMIRNEYRKLHPVLHKEWKQHL gave a protein stability index of 1.66. In the case of RAQMIRNEYRKLHPVLHKEIKQHL, the protein stability index is reported as 2.42. Work on RAQGIRNEYRKLHPVLHKEEKQHL yielded a protein stability index of 3.66. RAQAIRNEYRKLHPVLHKEEKQHL gave a protein stability index of 3.49. Work on RAQCIRNEYRKLHPVLHKEEKQHL yielded a protein stability index of 3.23. For RAQRIRNEYRKLHPVLHKEEKQHL, the protein stability index was 3.11. With RAQEIRNEYRKLHPVLHKEEKQHL the protein stability index was 3.86. In the case of RAQSIRNEYRKLHPVLHKEEKQHL, the protein stability index is reported as 3.07. RAQPIRNEYRKLHPVLHKEEKQHL showed a protein stability index of 3.73. Work on RAQWIRNEYRKLHPVLHKEEKQHL yielded a protein stability index of 2.44. In the case of RWQMIRNEYRKLHPVLHKEEKQHL, the protein stability index is reported as 2.27. In the case of RQQMIRNEYRKLHPVLHKEEKQHL, the protein stability index is reported as 3.09. Work on RKQMIRNEYRKLHPVLHKEEKQHL yielded a protein stability index of 3.2. Work on RLQMIRNEYRKLHPVLHKEEKQHL yielded a protein stability index of 2.96. Variant RSQMIRNEYRKLHPVLHKEEKQHL has a protein stability index of 2.99.
